Test results as given in publication PMC7939478, “Development of a novel mammalian display system for selection of antibodies against membrane proteins” (The Journal of Biological Chemistry, 2020).

Target: T1, human epithelial cell adhesion molecule (EpCAM) on CHO–EpCAM cells (Homo sapiens, UniProt P16422)
T1 construct: BC014785.1, expressed on the surface of CHO cells; source: CHO-X cells, lentiviral transduction, doxycycline-inducible, on the cell surface (clone SP1D12)
Assay: flow cytometry on cells; self-labeling: CHO–EpCAM cells transduced with the HA-tagged scFv, cultured 3 days with or without doxycycline, stained with anti-HA-PE
Details: partners not purified

T1 sequence (P16422 24-314): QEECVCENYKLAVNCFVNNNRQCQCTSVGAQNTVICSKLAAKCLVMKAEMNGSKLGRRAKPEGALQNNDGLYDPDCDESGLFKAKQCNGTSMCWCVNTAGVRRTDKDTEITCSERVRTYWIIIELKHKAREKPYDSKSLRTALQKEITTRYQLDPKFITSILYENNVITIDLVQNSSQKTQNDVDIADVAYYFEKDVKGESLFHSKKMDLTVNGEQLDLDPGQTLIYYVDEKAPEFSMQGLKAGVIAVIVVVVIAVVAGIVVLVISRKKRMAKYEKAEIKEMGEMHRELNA

B1: known anti-EpCAM scFv with a C-terminal HA tag (scFv, V domains shown)
VH: VQLLEQSGAELVRPGTSVKISCKASGYAFTNYWLGWVKQRPGHGLEWIGDIFPGSGNIHYNEKFKGKATLTADKSSSTAYMQLSSLTFEDSAVYFCARLRNWDEPMDYWGQGTTVTVSS
VL: ELVMTQSPSSLTVTAGEKVTMSCKSSQSLLNSGNQKNYLTWYQQKPGQPPKLLIYWASTRESGVPDRFTGSGSGTDFTLTISSVQAEDLAVYYCQNDYSYPLTFGAGTKLEIK
notes: Cloned into the pSF lentivector used for the scFv library; also called control anti-EpCAM scFv; source: CHO–EpCAM cells, lentiviral transduction, secreted by the same cells that carry the target; not shown: HA, C-terminal, kept
- fold increase in self-labeling signal (with against without doxycycline): > 100 fold
